Measured values published in article PMC10782416, “Fluorescence Correlation Spectroscopy as a Versatile Method to Define Aptamer–Protein Interactions with Single-Molecule Sensitivity”.

Columns and labels:
[1] = target: PDGF-BB (Homo sapiens, UniProt P01127 82-190); assay: FCS; 1 mg/mL BSA; 1 mM Mg2+ in folding buffer; titration regime; PBS pH 7.4; aptamer folded in PBS with 5 mM MgCl2 (1 mM for AS1411 and 36t), 90 C 2 min then cooled; final buffer not detailed; overnight at room temperature; 100 pM aptamer (1 nM for serum proteins); conditions: protein: commercial; chain copies: 2; label: 5'-atto633
[2] = target: T1, c-Met (soluble recombinant, hepatocyte growth factor receptor) (Homo sapiens, UniProt P08581 25-932); assay: FCS; c-Met up to 100 nM; PBS pH 7.4; aptamer folded in PBS with 5 mM MgCl2 (1 mM for AS1411 and 36t), 90 C 2 min then cooled; final buffer not detailed; overnight at room temperature; 100 pM aptamer (1 nM for serum proteins); conditions: protein: commercial; tags: polyhistidine tag; chain copies: 2; label: 5'-atto633; G-quadruplex destabilized
[3] = target: nucleolin (NCL) (Homo sapiens, UniProt P19338 1-710); assay: FCS; 1 mM Mg2+ in folding buffer; PBS pH 7.4; aptamer folded in PBS with 5 mM MgCl2 (1 mM for AS1411 and 36t), 90 C 2 min then cooled; final buffer not detailed; overnight at room temperature; 100 pM aptamer (1 nM for serum proteins); conditions: protein: commercial; label: 5'-atto633
[4] = target: transferrin (Tf) (Homo sapiens, UniProt P02787 20-698); assay: FCS; Tf 1-100 uM; PBS pH 7.4; aptamer folded in PBS with 5 mM MgCl2 (1 mM for AS1411 and 36t), 90 C 2 min then cooled; final buffer not detailed; overnight at room temperature; 100 pM aptamer (1 nM for serum proteins); conditions: protein: native; label: 5'-atto633; G-quadruplex
[5] = target: fibrinogen (Fibr) (Homo sapiens, UniProt P02671;P02675;P02679 20-629;31-491;27-433); assay: FCS; fibrinogen 1-10 uM; PBS pH 7.4; aptamer folded in PBS with 5 mM MgCl2 (1 mM for AS1411 and 36t), 90 C 2 min then cooled; final buffer not detailed; overnight at room temperature; 100 pM aptamer (1 nM for serum proteins); conditions: protein: native; chain copies: 2;2;2; label: 5'-atto633; G-quadruplex
[6] = target: T1, c-Met (soluble recombinant, hepatocyte …); assay: FCS; serum protein mix: HSA, IgG, transferrin, fibrinogen; PBS pH 7.4; aptamer folded in PBS with 5 mM MgCl2 (1 mM for AS1411 and 36t), 90 C 2 min then cooled; final buffer not detailed; overnight at room temperature; 100 pM aptamer (1 nM for serum proteins); conditions: protein: commercial; tags: polyhistidine tag; label: 5'-atto633; G-quadruplex
[7] = target: T1, c-Met (soluble recombinant, hepatocyte …); assay: FCS kinetics (koff/kon); kon 1.70e4 M-1 s-1; koff 4.30e-4 s-1; PBS pH 7.4; aptamer folded in PBS with 5 mM MgCl2 (1 mM for AS1411 and 36t), 90 C 2 min then cooled; final buffer not detailed; overnight at room temperature; 100 pM aptamer (1 nM for serum proteins); conditions: protein: commercial; tags: polyhistidine tag; label: 5'-atto633; G-quadruplex
[8] = target: T1, c-Met (soluble recombinant, hepatocyte …); assay: FCS; 5 mM Mg2+ in folding buffer; 100 pM aptamer; PBS pH 7.4; aptamer folded in PBS with 5 mM MgCl2 (1 mM for AS1411 and 36t), 90 C 2 min then cooled; final buffer not detailed; overnight at room temperature; 100 pM aptamer (1 nM for serum proteins); conditions: protein: commercial; tags: polyhistidine tag; label: 5'-atto633; G-quadruplex

T1 sequence (P08581 25-932): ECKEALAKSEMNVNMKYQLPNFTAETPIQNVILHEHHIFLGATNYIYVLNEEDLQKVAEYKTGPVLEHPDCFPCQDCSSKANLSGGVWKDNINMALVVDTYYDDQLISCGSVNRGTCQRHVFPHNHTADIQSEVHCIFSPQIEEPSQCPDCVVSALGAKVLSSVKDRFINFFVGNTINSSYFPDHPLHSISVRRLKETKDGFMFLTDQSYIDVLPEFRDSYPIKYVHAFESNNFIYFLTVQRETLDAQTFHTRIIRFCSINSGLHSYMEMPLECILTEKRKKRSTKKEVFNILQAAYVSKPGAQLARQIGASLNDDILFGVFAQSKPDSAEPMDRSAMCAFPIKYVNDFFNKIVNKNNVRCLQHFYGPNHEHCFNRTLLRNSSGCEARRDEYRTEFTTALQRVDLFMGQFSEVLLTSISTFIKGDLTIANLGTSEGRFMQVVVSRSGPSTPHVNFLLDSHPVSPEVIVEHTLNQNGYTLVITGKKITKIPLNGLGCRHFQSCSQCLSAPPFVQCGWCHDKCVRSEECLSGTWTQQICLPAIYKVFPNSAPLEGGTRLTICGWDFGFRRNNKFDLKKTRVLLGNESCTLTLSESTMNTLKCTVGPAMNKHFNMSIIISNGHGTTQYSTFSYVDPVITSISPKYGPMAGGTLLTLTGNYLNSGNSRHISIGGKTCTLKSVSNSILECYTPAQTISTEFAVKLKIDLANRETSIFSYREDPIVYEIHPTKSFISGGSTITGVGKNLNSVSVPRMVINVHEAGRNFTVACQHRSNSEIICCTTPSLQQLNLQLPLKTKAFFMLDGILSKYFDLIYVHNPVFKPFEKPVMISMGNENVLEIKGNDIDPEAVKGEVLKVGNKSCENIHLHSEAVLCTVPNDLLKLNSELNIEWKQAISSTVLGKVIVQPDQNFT
PDGF-BB, sequence (P01127 82-190): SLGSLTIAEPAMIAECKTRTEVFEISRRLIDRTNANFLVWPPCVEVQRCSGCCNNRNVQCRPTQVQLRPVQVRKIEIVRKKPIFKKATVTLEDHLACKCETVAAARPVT
fibrinogen (Fibr), sequence (P02671 20-629, chain 1 of 3): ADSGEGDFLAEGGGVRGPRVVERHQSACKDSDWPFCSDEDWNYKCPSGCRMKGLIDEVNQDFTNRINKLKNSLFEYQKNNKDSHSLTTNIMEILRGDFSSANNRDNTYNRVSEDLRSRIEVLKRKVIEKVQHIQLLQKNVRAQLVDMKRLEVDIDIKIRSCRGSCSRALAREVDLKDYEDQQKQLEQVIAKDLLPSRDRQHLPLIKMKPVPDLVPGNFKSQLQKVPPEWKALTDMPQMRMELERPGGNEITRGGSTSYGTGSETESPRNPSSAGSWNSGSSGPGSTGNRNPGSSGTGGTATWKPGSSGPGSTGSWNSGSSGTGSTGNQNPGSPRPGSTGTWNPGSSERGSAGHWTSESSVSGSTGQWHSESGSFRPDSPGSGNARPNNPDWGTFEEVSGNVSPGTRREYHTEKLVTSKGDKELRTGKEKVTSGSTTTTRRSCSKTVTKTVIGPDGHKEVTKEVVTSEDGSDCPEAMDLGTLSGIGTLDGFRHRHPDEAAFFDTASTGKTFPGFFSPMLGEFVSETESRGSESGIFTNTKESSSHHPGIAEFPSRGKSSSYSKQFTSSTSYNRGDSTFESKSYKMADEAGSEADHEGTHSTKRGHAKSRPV
fibrinogen (Fibr), sequence (P02675 31-491, chain 2 of 3): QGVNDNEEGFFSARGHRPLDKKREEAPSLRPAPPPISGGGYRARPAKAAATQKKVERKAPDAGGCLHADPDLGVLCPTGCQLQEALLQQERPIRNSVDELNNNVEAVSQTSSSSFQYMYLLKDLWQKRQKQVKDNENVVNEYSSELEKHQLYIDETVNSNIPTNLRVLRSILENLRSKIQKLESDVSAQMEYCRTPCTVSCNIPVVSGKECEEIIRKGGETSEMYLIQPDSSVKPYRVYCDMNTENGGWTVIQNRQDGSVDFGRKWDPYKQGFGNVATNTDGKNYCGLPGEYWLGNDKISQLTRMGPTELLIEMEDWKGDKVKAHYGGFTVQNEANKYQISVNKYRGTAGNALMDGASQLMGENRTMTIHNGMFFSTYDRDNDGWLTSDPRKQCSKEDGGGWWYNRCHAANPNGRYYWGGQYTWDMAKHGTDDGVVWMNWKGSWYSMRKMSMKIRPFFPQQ
fibrinogen (Fibr), sequence (P02679 27-433, chain 3 of 3): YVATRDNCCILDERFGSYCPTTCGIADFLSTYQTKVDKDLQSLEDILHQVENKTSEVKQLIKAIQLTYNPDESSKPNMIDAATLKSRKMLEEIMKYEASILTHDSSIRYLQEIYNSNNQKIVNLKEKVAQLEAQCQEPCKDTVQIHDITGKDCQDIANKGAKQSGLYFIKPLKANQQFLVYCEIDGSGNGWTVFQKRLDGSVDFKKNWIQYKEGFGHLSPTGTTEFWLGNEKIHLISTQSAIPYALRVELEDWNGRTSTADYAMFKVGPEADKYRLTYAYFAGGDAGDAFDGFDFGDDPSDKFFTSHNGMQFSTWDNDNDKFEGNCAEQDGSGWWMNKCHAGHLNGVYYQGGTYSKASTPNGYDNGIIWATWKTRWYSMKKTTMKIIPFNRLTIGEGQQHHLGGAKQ
nucleolin (NCL), sequence (P19338 whole entry): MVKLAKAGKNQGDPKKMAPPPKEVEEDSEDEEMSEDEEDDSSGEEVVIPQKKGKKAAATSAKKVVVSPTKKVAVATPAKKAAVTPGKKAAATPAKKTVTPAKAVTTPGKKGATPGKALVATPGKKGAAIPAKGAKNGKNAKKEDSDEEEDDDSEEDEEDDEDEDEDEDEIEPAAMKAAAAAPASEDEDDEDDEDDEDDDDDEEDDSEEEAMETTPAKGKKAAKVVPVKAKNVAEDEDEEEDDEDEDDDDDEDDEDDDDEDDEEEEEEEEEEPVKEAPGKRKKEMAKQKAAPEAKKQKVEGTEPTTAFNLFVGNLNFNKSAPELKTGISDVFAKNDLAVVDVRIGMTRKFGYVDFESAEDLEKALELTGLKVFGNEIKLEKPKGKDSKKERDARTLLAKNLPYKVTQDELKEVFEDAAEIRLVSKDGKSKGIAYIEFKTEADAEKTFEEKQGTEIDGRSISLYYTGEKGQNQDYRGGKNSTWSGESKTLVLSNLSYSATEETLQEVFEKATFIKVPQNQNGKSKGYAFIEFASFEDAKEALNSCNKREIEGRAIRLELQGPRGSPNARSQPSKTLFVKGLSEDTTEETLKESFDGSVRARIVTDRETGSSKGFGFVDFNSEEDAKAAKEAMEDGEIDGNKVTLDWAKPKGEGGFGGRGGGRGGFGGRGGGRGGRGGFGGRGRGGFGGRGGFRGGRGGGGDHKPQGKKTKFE
transferrin (Tf), sequence (P02787 20-698): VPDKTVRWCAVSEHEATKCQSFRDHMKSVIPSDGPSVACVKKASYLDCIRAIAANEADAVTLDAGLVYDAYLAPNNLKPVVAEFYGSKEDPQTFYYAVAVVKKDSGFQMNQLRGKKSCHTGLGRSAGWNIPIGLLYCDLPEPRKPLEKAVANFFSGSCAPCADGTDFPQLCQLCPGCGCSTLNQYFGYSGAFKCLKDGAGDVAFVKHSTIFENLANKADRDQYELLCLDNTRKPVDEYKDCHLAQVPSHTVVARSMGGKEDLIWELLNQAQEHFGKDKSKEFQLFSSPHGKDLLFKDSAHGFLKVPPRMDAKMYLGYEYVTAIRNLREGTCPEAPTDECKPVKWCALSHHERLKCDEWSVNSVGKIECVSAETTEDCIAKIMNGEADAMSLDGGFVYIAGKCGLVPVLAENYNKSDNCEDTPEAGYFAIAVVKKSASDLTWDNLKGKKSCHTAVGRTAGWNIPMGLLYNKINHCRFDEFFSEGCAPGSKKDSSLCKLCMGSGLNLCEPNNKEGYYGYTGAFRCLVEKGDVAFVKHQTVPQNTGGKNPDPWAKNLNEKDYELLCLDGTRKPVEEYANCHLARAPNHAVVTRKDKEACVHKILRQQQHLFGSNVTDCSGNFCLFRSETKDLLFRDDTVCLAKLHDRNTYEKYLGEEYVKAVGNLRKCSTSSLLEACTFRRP

B1: 36t (structured_DNA)
DNA: CACAGGCTACGGCACGTAGAGCATCACCATGATCCTGTG
For B1, the Kd [1] was < 1 nM.

B2: G5mut (ssDNA)
DNA: ATCAGGCTGGATGGTAGCTCGGTCGATGTGGATGGTTTGTCAAGTCTGATTA
B2: no binding [2].

B3: AS1411 (structured_DNA)
DNA: TTTGGTGGTGGTGGTTGTGGTGGTGGTGG
Binder B3 has a Kd [3] of 30 nM.

B4: CLN3 (structured_DNA)
DNA: ATCAGGTGGATGGTAGCTCGGTCGGGGTGGGTGGGTTGGCAAGTCTGATTA
For B4, the binding result [4] was “no binding”, the binding result [5] was “no binding” and the Kd [6] was 5 nM. The Kd [7] was ~25 nM and the Kd [8] was 5 ± 1 nM.
